From patent US20240261333A1 (published 2024)

How the values were obtained:
Assay in all cases: co-IP, anti-FLAG, lysate of cells with N-FLAG B3GNT2; mass spectrometry
PRBP1 = target: T1, PRBP1 (human, UniProt P26599 1-557)
T1 construct: Label 'PRBP1' is probably a misprint of PTBP1; also called NP_002810.1 (+4)

EIF5B = target: T2, EIF5B (human, UniProt O60841 1-1220)
T2 construct: also called NP_056988.3
T2 sequence (looked up): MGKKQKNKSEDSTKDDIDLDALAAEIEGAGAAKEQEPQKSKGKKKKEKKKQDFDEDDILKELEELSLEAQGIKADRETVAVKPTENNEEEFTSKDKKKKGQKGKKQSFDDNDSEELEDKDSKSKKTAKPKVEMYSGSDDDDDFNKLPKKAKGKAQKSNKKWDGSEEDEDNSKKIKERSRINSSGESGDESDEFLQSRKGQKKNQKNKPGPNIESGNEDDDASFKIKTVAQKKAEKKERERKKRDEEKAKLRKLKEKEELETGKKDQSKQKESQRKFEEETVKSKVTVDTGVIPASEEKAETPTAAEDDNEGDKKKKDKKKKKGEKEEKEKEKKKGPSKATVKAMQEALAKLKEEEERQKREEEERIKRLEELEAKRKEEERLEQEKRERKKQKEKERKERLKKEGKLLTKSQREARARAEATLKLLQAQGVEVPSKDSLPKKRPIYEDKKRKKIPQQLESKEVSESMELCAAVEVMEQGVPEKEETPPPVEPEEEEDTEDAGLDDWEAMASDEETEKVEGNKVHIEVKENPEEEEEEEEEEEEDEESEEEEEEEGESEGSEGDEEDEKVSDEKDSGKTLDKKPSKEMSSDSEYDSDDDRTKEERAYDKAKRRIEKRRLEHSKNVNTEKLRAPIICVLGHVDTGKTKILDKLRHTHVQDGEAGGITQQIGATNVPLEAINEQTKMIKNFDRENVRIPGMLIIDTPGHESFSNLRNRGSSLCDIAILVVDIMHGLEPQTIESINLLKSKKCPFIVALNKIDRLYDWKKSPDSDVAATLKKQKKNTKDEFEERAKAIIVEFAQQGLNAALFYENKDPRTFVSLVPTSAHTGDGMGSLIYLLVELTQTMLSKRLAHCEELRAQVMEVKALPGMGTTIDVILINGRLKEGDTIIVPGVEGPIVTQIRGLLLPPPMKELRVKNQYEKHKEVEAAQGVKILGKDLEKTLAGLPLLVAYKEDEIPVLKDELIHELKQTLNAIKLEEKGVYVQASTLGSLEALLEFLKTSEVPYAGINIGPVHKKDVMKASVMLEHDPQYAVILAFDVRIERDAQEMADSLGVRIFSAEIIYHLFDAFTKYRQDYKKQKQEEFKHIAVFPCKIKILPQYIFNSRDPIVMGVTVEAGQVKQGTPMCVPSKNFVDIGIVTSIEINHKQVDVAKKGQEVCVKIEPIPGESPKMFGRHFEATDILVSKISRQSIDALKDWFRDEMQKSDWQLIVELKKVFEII

ATXN2 = target: T3, ATXN2 (human, UniProt Q99700 1-1313)
T3 construct: also called NP_002964.3
T3 sequence (Q99700 whole entry): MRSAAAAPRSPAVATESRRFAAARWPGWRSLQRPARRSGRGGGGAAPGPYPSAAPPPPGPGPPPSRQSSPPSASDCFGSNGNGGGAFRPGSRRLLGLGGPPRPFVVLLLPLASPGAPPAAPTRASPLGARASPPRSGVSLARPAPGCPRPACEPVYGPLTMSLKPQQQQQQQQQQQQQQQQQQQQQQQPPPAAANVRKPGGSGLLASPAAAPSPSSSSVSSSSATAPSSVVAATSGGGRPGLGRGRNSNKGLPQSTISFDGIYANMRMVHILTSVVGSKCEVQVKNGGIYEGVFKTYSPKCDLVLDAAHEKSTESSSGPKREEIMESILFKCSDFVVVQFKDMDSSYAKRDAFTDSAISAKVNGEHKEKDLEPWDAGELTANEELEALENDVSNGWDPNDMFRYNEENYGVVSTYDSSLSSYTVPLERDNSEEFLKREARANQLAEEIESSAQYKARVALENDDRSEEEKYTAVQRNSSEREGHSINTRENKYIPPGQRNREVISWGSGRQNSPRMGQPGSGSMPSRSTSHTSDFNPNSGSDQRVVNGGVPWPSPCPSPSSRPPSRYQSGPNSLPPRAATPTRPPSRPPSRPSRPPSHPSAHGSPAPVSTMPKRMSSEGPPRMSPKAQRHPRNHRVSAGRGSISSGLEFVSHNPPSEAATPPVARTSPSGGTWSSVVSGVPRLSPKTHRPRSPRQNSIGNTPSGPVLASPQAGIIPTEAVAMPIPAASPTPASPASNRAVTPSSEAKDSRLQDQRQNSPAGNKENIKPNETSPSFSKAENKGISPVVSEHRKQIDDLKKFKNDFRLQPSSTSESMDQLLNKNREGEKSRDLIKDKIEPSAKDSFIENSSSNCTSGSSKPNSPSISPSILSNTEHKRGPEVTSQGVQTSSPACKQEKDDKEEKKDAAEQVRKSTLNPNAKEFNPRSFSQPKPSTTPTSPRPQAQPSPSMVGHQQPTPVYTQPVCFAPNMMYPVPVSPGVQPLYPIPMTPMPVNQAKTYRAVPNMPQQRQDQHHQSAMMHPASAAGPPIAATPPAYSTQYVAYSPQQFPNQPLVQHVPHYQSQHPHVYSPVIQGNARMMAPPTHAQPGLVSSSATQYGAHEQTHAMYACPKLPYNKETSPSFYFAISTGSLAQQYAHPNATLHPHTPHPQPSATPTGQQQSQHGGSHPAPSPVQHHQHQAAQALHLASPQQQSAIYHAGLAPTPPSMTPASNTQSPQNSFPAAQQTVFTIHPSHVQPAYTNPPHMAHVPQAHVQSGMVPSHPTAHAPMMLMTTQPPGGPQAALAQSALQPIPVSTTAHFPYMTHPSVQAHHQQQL

T1 sequence (P26599 whole entry): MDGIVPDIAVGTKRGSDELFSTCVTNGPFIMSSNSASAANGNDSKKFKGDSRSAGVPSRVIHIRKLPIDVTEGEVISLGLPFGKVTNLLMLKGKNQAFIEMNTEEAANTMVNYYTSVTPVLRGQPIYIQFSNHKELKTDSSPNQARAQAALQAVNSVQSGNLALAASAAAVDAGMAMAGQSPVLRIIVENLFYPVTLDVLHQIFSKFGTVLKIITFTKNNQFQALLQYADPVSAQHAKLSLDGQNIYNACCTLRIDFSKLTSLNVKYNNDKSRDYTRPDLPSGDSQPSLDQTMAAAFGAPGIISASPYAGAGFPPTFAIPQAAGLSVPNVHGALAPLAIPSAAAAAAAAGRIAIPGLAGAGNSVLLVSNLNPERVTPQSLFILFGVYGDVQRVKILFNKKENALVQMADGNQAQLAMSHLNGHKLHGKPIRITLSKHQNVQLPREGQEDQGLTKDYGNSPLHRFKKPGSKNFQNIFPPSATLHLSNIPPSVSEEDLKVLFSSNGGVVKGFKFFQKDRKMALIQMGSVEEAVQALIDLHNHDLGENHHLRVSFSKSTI

B1: N-terminal FLAG tagged B3GNT2 (enzyme, human, UniProt Q9NY97 1-397, looked up)
chain: MSVGRRRIKLLGILMMANVFIYFIMEVSKSSSQEKNGKGEVIIPKEKFWKISTPPEAYWNREQEKLNRQYNPILSMLTNQTGEAGRLSNISHLNYCEPDLRVTSVVTGFNNLPDRFKDFLLYLRCRNYSLLIDQPDKCAKKPFLLLAIKSLTPHFARRQAIRESWGQESNAGNQTVVRVFLLGQTPPEDNHPDLSDMLKFESEKHQDILMWNYRDTFFNLSLKEVLFLRWVSTSCPDTEFVFKGDDDVFVNTHHILNYLNSLSKTKAKDLFIGDVIHNAGPHRDKKLKYYIPEVVYSGLYPPYAGGGGFLYSGHLALRLYHITDQVHLYPIDDVYTGMCLQKLGLVPEKHKGFRTFDIEEKNKNNICSYVDLMLVHSRKPQEMIDIWSQLQSAHLKC
notes: Overexpressed in cells and pulled down from the lysate with mouse anti-FLAG antibody; also called N-FLAG B3GNT2; N-term FLAG; not shown: N-terminal FLAG tag
B1 was tested, and the “co-IP mass spectrometry count” value (PRBP1) was 6, the “co-IP mass spectrometry count” value (EIF5B) was 0 and the “co-IP mass spectrometry count” value (ATXN2) was 4.
